Values quoted from earlier work, collected in PMC7425896, “Polypeptides derived from α-Synuclein binding partners to prevent α-Synuclein fibrils interaction with and take-up by cells” (PLoS ONE, 2020).

Molecular target: α-Synuclein fibrils (Homo sapiens) (UniProt P37840)
Assay: sedimentation assay

Kd: 100 nM
Substance: Hsc70 (from UniProt P11142)
